According to article PMC11995187, “Specificity landscapes of 40 R2R3‐MYBs reveal how paralogs target different cis‐elements by homodimeric binding”:

T1: AtMYB2 homodimer (Arabidopsis thaliana, UniProt Q39028 1-273)
T1 sequence: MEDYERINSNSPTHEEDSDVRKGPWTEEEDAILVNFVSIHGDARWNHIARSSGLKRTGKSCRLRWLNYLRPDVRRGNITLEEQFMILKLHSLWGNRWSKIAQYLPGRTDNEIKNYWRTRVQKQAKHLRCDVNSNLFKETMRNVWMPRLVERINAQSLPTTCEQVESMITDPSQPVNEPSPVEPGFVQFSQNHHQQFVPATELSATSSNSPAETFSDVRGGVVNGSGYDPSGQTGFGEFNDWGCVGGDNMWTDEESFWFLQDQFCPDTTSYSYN

T2: AtMYB2 (Arabidopsis thaliana, UniProt Q39028 1-273)
T2 sequence: T1 sequence

B1: ER8 (dsDNA)
DNA 1: GATCCAATTGGTTAGGTCGATCTCAACCTAACATCAATGCCA
DNA 2: TGGCATTGATGTTAGGTTGAGATCGACCTAACCAATTGGATC
B2: ER1a (dsDNA)
DNA 1: GATCCAATTGGTTTGGTCACCGATTTAACCTCATCAATGCCA
DNA 2: TGGCATTGATGAGGTTAAATCGGTGACCAAACCAATTGGATC
B3: Ma (dsDNA)
DNA 1: GATCCAATTGACCACTACGTTAGGTAATGGACATCAATGCCA
DNA 2: TGGCATTGATGTCCATTACCTAACGTAGTGGTCAATTGGATC

Tests used:
[1] = target: T1, AtMYB2 homodimer; assay: EMSA; 18-48 ng/uL protein; monomer band also seen, dimer band at 36 and 48 ng/uL; EMSA: 10 mM Tris pH 7.5, 50 mM KCl, 10 ng DNA in 20 uL, 25 C, 1 h; 6% native PAGE, 0.5x TBE, 4 C; details: protein: recombinant; tags: His; chain copies: 2; label: none (gel stain); (annealed oligonucleotides)
[2] = target: T2, AtMYB2; assay: EMSA; 24-48 ng/uL protein; single-molecule shift only, no dimer band; EMSA: 10 mM Tris pH 7.5, 50 mM KCl, 10 ng DNA in 20 uL, 25 C, 1 h; 6% native PAGE, 0.5x TBE, 4 C; details: protein: recombinant; tags: His; label: none (gel stain); (annealed oligonucleotides)

Binder | binding result [1] | binding result [2]
B1 | binds | –
B2 | binds | –
B3 | – | binds
